Test results reported in PMC10427353, “MSL1 Promotes Liver Regeneration by Driving Phase Separation of STAT3 and Histone H4 and Enhancing Their Acetylation” (Advanced Science, 2023).

How the values were obtained:
[1] = target: T1, STAT3 (recombinant, pET‐28a) (mouse, UniProt P42227 1-770); test: co-sedimentation; sedimentation assay of condensates: purified proteins mixed in phase separation buffer (20 mM HEPES pH 7.8, NaCl, PEG‐8000), 15 000 g for 10 min, supernatant and pellet on SDS–PAGE with Coomassie staining; details: both partners purified
T1 construct: STAT3 in pET‐28a; cDNA amplified from mouse liver; The legend of the sedimentation assay names 'STAT3'; source: E. coli BL21, purified (HiTrap HP chelating column)
T1 sequence (P42227 whole entry): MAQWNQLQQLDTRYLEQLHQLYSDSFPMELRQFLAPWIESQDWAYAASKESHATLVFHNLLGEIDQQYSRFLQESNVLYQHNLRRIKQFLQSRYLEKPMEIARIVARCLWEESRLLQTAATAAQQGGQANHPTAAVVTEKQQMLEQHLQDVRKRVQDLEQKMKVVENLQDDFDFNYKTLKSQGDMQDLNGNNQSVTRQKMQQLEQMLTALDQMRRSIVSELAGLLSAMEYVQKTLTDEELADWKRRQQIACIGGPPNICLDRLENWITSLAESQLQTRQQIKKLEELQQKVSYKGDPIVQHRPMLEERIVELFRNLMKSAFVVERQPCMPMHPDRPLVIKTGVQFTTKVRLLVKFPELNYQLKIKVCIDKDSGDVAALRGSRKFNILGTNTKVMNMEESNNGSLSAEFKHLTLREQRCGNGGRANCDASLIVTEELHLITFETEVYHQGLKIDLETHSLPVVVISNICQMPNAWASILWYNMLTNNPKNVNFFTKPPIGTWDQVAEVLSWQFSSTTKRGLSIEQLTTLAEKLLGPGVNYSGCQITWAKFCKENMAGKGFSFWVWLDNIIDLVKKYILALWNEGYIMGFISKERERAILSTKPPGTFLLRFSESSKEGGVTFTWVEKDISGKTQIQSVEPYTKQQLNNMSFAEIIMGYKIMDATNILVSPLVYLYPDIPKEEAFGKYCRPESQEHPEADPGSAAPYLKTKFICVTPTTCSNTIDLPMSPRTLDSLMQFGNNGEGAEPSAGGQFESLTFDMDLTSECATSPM

[2] = target: T2, H4 (recombinant, pET‐28a) (mouse, UniProt P62806 1-103); test: as above; details: both partners purified
T2 construct: histone H4 in pET‐28a; cDNA amplified from mouse liver; The legend of the sedimentation assay names 'H4'; also called histone H4; source: E. coli BL21, purified (HiTrap HP chelating column)

binding result [1]: binds
binding result [2]: binds
B1: MSL1 (recombinant, pET‐28a) (natural protein, mouse, UniProt Q6PDM1 1-616, looked up)
chain: MTMRSAVFKAAAAPAGGNPEQRLDYERAAALGGPEDESGAAEAHFLPRHRKLKEPGPPLASSQGGSPSPSPAGCGGGKGRGLLLPAGAAPGQQEESWGGSVPLPCPPPATKQAGIGGEPVAAGAGCSPRPKYQAVLPIQTGSIVVAAAKEPTPWAGDKGGAAPPAATASDPAGPPPLPLPGPPPLAPTATAGTLAASEGRWKSIRKSPLGGGGGSGASSQAACLKQILLLQLDLIEQQQQQLQAKEKEIEELKSERDTLLARIERMERRMQLVKRDNEKERHKLLQGYEPEEREEAELSEKIKLERQPELCETSQALPSKPFSCGRSGKGHKRKTPFGNTERKTPVKKLAPEFSKVKTKTPKHSPIKEEPCGSISETVCKRELRSQETPEKPRSSVDTPPRLSTPQKGPSTHPKEKAFSSEMEDLPYLSTTEMYLCRWHQPPPSPLPLRESSPKKEETVARCLMPSSVAGETSVLAVPSWRDHSVEPLRDPNPSDILENLDDSVFSKRHAKLELDEKRRKRWDIQRIREQRILQRLQLRMYKKKGIQESEPEVTSFFPEPDDVESLLITPFLPVVAFGRPLPKLAPQNFELPWLDERSRCRLEIQKKHTPHRTCRK
notes: MSL1 in pET‐28a; cDNA amplified from mouse liver; The legend of the sedimentation assay names 'MSL1'; source: E. coli BL21, purified (HiTrap HP chelating column)
